Experimental data reported in EP3574020B1.
Changes are numbered by the printed parent chain. In names and notes the source's numbering stands.

Tests used:
[1] = target: T1, cyclo(CGHHQKG) cyclic peptide, conjugated to BSA; experiment: MAAS-2 SPR; antibody immobilized, cyclopeptide-BSA at pH 6.5, 7.5 or 8.0
T1 sequence (peptide, cyclized peptide, cyclo(CGHHQKG); conjugated to BSA): CGHHQKG

[2] = target: A-beta oligomers in the low molecular weight (LMW, ~8-70 kDa) fraction of soluble human AD brain extract (human) (UniProt P05067); experiment: SPR; antibody immobilized, SEC fraction at 100ug/ml
[3] = target: A-beta42 Oligomer (synthetic) (human); experiment: SPR; purified antibody immobilized, A-beta injected
[4] = target: commercially-prepared stable A-beta42 Oligomers (SynAging) (human); experiment: SPR; antibody covalently immobilized, stable A-beta42 oligomers at 1 microM
A-beta42 Monomer (human) [5] = experiment: SPR direct binding; hybridoma supernatant over immobilized A-beta42 monomer
[6] = target: A-beta42 Oligomer (synthetic) (human); experiment: SPR direct binding; hybridoma supernatant over immobilized A-beta42 oligomer
A-beta42 Monomer (human) [7] = experiment: SPR; purified antibody immobilized, A-beta injected
[8] = target: T2, linear CGHHQKG peptide, conjugated to BSA; experiment: SPR direct binding; hybridoma supernatant over immobilized BSA-conjugated peptide
T2 sequence (peptide, conjugated to BSA): CGHHQKG

[9] = target: T1, cyclo(CGHHQKG) cyclic peptide, conjugated to BSA; experiment: as above

A-beta42 Oligomer (synthetic) (human), sequence (peptide, as listed by the source): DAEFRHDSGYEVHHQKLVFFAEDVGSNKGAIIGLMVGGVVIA
A-beta oligomers in the low molecular weight (LMW, ~8-70 kDa) fraction of soluble human AD brain extract (human), sequence (P05067 672-713): as the sequence (peptide, as listed by the source) above
A-beta42 Monomer (human), sequence (peptide, as listed by the source): as above
commercially-prepared stable A-beta42 Oligomers (SynAging) (human), sequence (peptide, as listed by the source): as above

B1: Recombinant 301-17 IgG1 (murine IgG1 backbone) (antibody, V domains shown)
VH: QVQLQQPGAELVKPGASVKMSCKASGYSFTSYWINWVKQRPGQGLEWIGDVHPGRGVSTYNAKFKSKATLTLDTSSSTAYMQLSSLTSEDSAVYYCSRSHGNTYWFFDVWGAGTTVTVSS
VL: DVLMTQTPLSLPVSLGDQASISCRSSQSIVHSNGNTYLEWYLQKPGQSPKLLIYKVSNRFSGVPDRFSGSGSGTDFTLKISRVEAEDLGVYYCFQGSHVPFTFGSGTKLEIKR
With B1 as the binder, how does the BRU [1] read?
Its BRU is 400 BRU.

B2: Humanized antibody of 301-17 (VH2 Vk5), human IgG4 (S241P hinge variant) / kappa (antibody, V domains shown)
VH: B1 VH with Q5V, P7S, L11V, V12K, K67R, S76I, Q82E, T87R, S91T, A112Q
VL: B1 VL with T7S, S14T, D17Q, Q18P, L42Q, K44R, K50R, L88V, S105Q
How did the fold binding response against aducanumab [2] turn out when B2 was run?
The fold binding response against aducanumab was 1.5 to 2 fold.

B3: 301-17 mouse monoclonal antibody, hybridoma-purified IgG3 (antibody, V domains shown)
VH: QVQLQQPGAELVKPGASVKMSCKASGYSFTSYWINWVKQRPGQGLEWIGDVHPGRGVSTYNAKFKSKATLTLDTSSSTAYMQLSSLTSEDSAVYYCSRSHGNTYWFFDVWGAGTTVTVSSATTTAPS
VL: DVLMTQTPLSLPVSLGDQASISCRSSQSIVHSNGNTYLEWYLQKPGQSPKLLIYKVSNRFSGVPDRFSGSGSGTDFTLKISRVEAEDLGVYYCFQGSHVPFTFGSGTKLEIKRADA
With B3 as the binder, how does the RU [3] read?
Its RU is 148 RU.

B4: 301-11 mouse monoclonal antibody (IgG3, kappa) (antibody, V domains shown)
VH: EVQLVESGGGLVKPGGSLKLSCAASGFTFSDYYMYWVRQTPEKRLEWVATISDGGSYTSYPDSVKGRFTISRDNAKNNLYLQMSSLRSEDTAMYYCARDYYGSSSYTSGFAYWGQGTLVTVSA
VL: DIVMSQSPSSLAVSTGEKVTMSCKSSQSLLNSRTRKNYLAWYQQKPGQSPKLLIYWASTRESGVPDRFTGSGSGTDFTLTISSVQAEDLAVYYCKQSYNLYTFGGGTKLEIK
Which binding response units (BRU), average [4] does the source give for B4 here?
The binding response units (BRU), average was 19.3 BRU.

And the RU (A-beta42 Monomer (human) [5])?
The RU was 21.6 RU.

And the RU [6]?
The RU was 75.3 RU.

And the RU (A-beta42 Monomer (human) [7])?
Its RU is -14.1 RU.

What about the RU [3] of the same binder?
Its RU is -2.8 RU.

And the RU [8]?
Its RU is 210 RU.

What about the RU [9] of the same binder?
The RU was 488 RU.
